This assay has as its target T1, recombinant human TNFR2 (SinoBiological, 10417-H03H) (human, UniProt P20333 23-257).
T1 construct: Bought protein; also called human recombinant TNFR2
T1 sequence (looked up): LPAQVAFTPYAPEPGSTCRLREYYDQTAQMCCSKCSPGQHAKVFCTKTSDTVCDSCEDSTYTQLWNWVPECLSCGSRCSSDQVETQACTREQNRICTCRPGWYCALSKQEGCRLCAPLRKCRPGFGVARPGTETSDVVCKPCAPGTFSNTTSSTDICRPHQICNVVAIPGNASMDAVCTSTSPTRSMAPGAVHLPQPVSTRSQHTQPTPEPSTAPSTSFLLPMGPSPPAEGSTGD
In words: ELISA on plate-coated recombinant human TNFR2, detection with anti-camelid-VHH-HRP; the axis is the lysate concentration. The method, then: The prepared positive clone lysate was subjected to ELISA affinity detection. The specific method was as follows: a 96-well ELISA plate was coated with 2 μg/mL recombinant human TNFR2 and incubated overnight at 4° C.; the next day, the well plate was washed 3 times with PBST, 5% skim milk was added, and blocking was performed for 2 h; subsequently, the well plate was washed 3 times with PBST, gradiently diluted positive clone lysates were added, and incubation was performed for 1 h; subsequently, the well plate was washed 3 times with PBST, Rabbit Anti-Camelid-VHH-HRP (Genescript, A01861-200) diluted at 1:8000 was added, and incubation was performed for 1 h; subsequently, the well plate was washed 6 times with PBST, TMB (SurModics, TMBS-1000-01) was added for color development in the dark for 5-10 min, and 2 M HCl was added to stop the reaction according to the color development results; the values at OD450 were read by a microplate reader (Molecular Devices, SpecterMax 190) and fitted by four parameters.
(In general: An ELISA detects its analyte on a solid surface through an enzyme-linked reagent.)

The results in this text go back to patent publication US20250043016A1 (SANYOU BIOPHARMACEUTICALS, published 2025).

As usually defined, the EC50 (read off the curve) is the concentration giving half of the maximal effect.

B1: NB92-161 VHH (positive clone lysate from E. coli) (VHH)
VHH: EVQLVESGGGLVQPGGSLRLSCAASGSIFSINDMGWYRQAPGKQRELVAAIGRGGGSTNYADSVKGRFTISRDNAKNTVYLQMNSLKPEDTAVYYCHAEISQLTWAFRDYWGQGTQVTVSS
notes: Tested as crude bacterial lysate from the phage display vector
Regarding B1, the “EC50 (read off the curve)” value was around 0.2 µg/mL.
